From IntAct's records for PubMed 16461343

B1: Tyrosine-protein phosphatase non-receptor type 22 (Homo sapiens), Q9Y2R2 (parent)
chain: MDQREILQKFLDEAQSKKITKEEFANEFLKLKRQSTKYKADKTYPTTVAEKPKNIKKNRYKDILPYDYSRVELSLITSDEDSSYINANFIKGVYGPKAYIATQGPLSTTLLDFWRMIWEYSVLIIVMACMEYEMGKKKCERYWAEPGEMQLEFGPFSVSCEAEKRKSDYIIRTLKVKFNSETRTIYQFHYKNWPDHDVPSSIDPILELIWDVRCYQEDDSVPICIHCSAGCGRTGVICAIDYTWMLLKDGIIPENFSVFSLIREMRTQRPSLVQTQEQYELVYNAVLELFKRQMDVIRDKHSGTESQAKHCIPEKNHTLQADSYSPNLPKSTTKAAKMMNQQRTKMEIKESSSFDFRTSEISAKEELVLHPAKSSTSFDFLELNYSFDKNADTTMKWQTKAFPIVGEPLQKHQSLDLGSLLFEGCSNSKPVNAAGRYFNSKVPITRTKSTPFELIQQRETKEVDSKENFSYLESQPHDSCFVEMQAQKVMHVSSAELNYSLPYDSKHQIRNASNVKHHDSSALGVYSYIPLVENPYFSSWPPSGTSSKMSLDLPEKQDGTVFPSSLLPTSSTSLFSYYNSHDSLSLNSPTNISSLLNQESAVLATAPRIDDEIPPPLPVRTPESFIVVEEAGEFSPNVPKSLSSAVKVKIGTSLEWGGTSEPKKFDDSVILRPSKSVKLRSPKSELHQDRSSPPPPLPERTLESFFLADEDCMQAQSIETYSTSYPDTMENSTSSKQTLKTPGKSFTRSKSLKILRNMKKSICNSCPPNKPAESVQSNNSSSFLNFGFANRFSKPKGPRNPPPTWNI

Columns and labels:
lck_human LCK, P06239 = variants of: B1; details: with lck_human LCK
[1] = variants of: B1; details: with zap70_human ZAP70, P43403
cd3z_human CD247, P20963 = variants of: B1; details: with cd3z_human CD247, P20963

Measured: effect of a mutation on the interaction

cd3z_human CD247, P20963, sequence (P20963 whole entry): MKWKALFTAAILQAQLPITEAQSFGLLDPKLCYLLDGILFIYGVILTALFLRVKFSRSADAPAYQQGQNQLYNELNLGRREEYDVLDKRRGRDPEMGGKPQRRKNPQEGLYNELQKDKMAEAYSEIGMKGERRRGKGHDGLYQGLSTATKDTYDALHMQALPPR
zap70_human ZAP70, P43403, sequence (P43403 whole entry): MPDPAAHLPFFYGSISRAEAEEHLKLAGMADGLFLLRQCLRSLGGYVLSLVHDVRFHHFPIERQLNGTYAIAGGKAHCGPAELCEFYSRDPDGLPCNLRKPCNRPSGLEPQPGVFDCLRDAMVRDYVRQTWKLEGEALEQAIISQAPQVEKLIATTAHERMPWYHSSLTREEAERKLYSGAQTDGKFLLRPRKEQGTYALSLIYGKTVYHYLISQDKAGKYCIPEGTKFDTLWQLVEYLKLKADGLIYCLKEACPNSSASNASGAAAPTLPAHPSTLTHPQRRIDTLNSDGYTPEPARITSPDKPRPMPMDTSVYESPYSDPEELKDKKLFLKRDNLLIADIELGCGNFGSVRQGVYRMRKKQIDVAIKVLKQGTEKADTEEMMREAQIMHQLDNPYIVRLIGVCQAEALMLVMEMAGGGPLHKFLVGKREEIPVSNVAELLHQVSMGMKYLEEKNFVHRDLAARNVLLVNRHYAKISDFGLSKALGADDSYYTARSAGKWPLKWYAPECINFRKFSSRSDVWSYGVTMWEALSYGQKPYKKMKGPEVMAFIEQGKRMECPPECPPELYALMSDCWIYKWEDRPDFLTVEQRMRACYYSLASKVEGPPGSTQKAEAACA
lck_human LCK, P06239, sequence (P06239 whole entry, looked up): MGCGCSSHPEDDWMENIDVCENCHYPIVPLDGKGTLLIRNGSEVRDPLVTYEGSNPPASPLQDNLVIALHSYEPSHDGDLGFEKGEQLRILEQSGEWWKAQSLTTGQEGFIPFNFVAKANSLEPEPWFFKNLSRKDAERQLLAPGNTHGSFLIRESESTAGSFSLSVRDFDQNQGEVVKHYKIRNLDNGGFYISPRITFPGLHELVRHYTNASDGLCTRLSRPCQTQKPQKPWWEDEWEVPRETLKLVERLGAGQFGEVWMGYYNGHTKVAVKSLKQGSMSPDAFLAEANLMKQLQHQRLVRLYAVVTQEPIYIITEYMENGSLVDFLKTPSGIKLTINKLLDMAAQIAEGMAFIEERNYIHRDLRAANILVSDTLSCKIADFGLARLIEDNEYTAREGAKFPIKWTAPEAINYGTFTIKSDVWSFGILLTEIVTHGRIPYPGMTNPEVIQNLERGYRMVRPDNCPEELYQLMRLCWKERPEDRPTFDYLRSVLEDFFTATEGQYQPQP

C227S
increasing interaction: all assays above

D195A
increasing interaction: all assays above
